According to patent publication US20180155451A1 (published 2018):

T1: FcγRIIb (human, UniProt P31994 43-217)
T1 construct: extracellular domain; Soluble extracellular domain with C-terminal His tag, used as analyte in Biacore; also called FcgRIIb; 2b; not shown: His tag attached to the C terminus
T1 sequence (looked up): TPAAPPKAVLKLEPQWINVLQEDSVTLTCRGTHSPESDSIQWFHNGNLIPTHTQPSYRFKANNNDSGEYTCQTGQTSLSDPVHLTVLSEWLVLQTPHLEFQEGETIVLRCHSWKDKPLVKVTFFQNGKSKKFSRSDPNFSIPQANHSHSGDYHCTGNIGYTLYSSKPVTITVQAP


What was measured:
FcγRIa [1] = biological target: T2, FcγRIa (human, UniProt P12314 16-292); assay: SPR (Biacore); He/Con_1a divided by He/Con_2b (FcγRIa against FcγRIIb)
T2 construct: extracellular domain; Soluble extracellular domain with C-terminal His tag, used as analyte in Biacore; also called FcgRI; 1a; not shown: His tag attached to the C terminus

FcγRIa [2] = biological target: T2, FcγRIa; assay: SPR (Biacore), antibody captured on antigen peptide, FcγR as analyte; relative to GpH7-A5/GpH7-B3/GpL16-k0 = 100
FcγRIIb = biological target: T1, FcγRIIb; assay: as above

T2 sequence (P12314 16-292): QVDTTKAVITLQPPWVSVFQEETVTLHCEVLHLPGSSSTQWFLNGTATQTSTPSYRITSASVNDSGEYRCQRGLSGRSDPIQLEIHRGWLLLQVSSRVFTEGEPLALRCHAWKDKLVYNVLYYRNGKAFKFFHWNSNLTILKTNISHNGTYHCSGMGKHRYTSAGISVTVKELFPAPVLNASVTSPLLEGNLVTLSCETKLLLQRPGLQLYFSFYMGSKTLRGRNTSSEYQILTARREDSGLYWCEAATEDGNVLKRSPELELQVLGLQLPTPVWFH

Row | Binder | Ia/IIb He_1a/2b (FcγRIa [1]) [ratio] | He/Con_1a (FcγRIa [2]) | He/Con_2b (FcγRIIb)
1 | GpH7-A5/GpH7-B3 variant G237_18N/GpL16-k0 (antibody, human IgG1, kappa, Heterodimerized IgG1; mutation in the GpH7-B3 H chain only; also called He Ab) heavy 1: not shown heavy 2: not shown light: DIVMTQSPLSLPVTPGEPASISCQASESLVHSNRNTYLHWYLQKPGQSPQLLIYKVSNRFSGVPDRFSGSGSGTDFTLKISRVEAEDVGVYYCSQNTHVPPTFGQGTKVEIERTVAAPSVFIFPPSDEQLKSGTASVVCLLNNFYPREAKVQWKVDNALQSGNSQESVTEQDSKDSTYSLSSTLTLSKADYEKHKVYACEVTHQGLSSPVTKSFNRGEC | 0.46 | 82.5 % of control | 180 % of control
2 | GpH7-A5/GpH7-B3 variant S239_01G/GpL16-k0 (antibody, human IgG1, kappa, Heterodimerized IgG1; mutation in the GpH7-B3 H chain only; also called He Ab) heavy 1: not shown heavy 2: not shown light: DIVMTQSPLSLPVTPGEPASISCQASESLVHSNRNTYLHWYLQKPGQSPQLLIYKVSNRFSGVPDRFSGSGSGTDFTLKISRVEAEDVGVYYCSQNTHVPPTFGQGTKVEIERTVAAPSVFIFPPSDEQLKSGTASVVCLLNNFYPREAKVQWKVDNALQSGNSQESVTEQDSKDSTYSLSSTLTLSKADYEKHKVYACEVTHQGLSSPVTKSFNRGEC | 0.7 | 101 % of control | 144 % of control
3 | GpH7-A5/GpH7-B3 variant H268_09D/GpL16-k0 (antibody, human IgG1, kappa, Heterodimerized IgG1; mutation in the GpH7-B3 H chain only; also called He Ab) heavy 1: not shown heavy 2: not shown light: DIVMTQSPLSLPVTPGEPASISCQASESLVHSNRNTYLHWYLQKPGQSPQLLIYKVSNRFSGVPDRFSGSGSGTDFTLKISRVEAEDVGVYYCSQNTHVPPTFGQGTKVEIERTVAAPSVFIFPPSDEQLKSGTASVVCLLNNFYPREAKVQWKVDNALQSGNSQESVTEQDSKDSTYSLSSTLTLSKADYEKHKVYACEVTHQGLSSPVTKSFNRGEC | 0.46 | 110 % of control | 239 % of control
4 | GpH7-A5/GpH7-B3 variant H268_02A/GpL16-k0 (antibody, human IgG1, kappa, Heterodimerized IgG1; mutation in the GpH7-B3 H chain only; also called He Ab) heavy 1: not shown heavy 2: not shown light: DIVMTQSPLSLPVTPGEPASISCQASESLVHSNRNTYLHWYLQKPGQSPQLLIYKVSNRFSGVPDRFSGSGSGTDFTLKISRVEAEDVGVYYCSQNTHVPPTFGQGTKVEIERTVAAPSVFIFPPSDEQLKSGTASVVCLLNNFYPREAKVQWKVDNALQSGNSQESVTEQDSKDSTYSLSSTLTLSKADYEKHKVYACEVTHQGLSSPVTKSFNRGEC | 0.65 | 109 % of control | 167 % of control
5 | GpH7-A5/GpH7-B3 variant S239_08L/GpL16-k0 (antibody, human IgG1, kappa, Heterodimerized IgG1; mutation in the GpH7-B3 H chain only; also called He Ab) heavy 1: not shown heavy 2: not shown light: DIVMTQSPLSLPVTPGEPASISCQASESLVHSNRNTYLHWYLQKPGQSPQLLIYKVSNRFSGVPDRFSGSGSGTDFTLKISRVEAEDVGVYYCSQNTHVPPTFGQGTKVEIERTVAAPSVFIFPPSDEQLKSGTASVVCLLNNFYPREAKVQWKVDNALQSGNSQESVTEQDSKDSTYSLSSTLTLSKADYEKHKVYACEVTHQGLSSPVTKSFNRGEC | 0.71 | 99.8 % of control | 140 % of control
6 | GpH7-A5/GpH7-B3 variant P238_10E/GpL16-k0 (antibody, human IgG1, kappa, Heterodimerized IgG1; mutation in the GpH7-B3 H chain only; also called He Ab) heavy 1: not shown heavy 2: not shown light: DIVMTQSPLSLPVTPGEPASISCQASESLVHSNRNTYLHWYLQKPGQSPQLLIYKVSNRFSGVPDRFSGSGSGTDFTLKISRVEAEDVGVYYCSQNTHVPPTFGQGTKVEIERTVAAPSVFIFPPSDEQLKSGTASVVCLLNNFYPREAKVQWKVDNALQSGNSQESVTEQDSKDSTYSLSSTLTLSKADYEKHKVYACEVTHQGLSSPVTKSFNRGEC | 0.44 | 102 % of control | 232 % of control
7 | GpH7-A5/GpH7-B3 variant L234_09D/GpL16-k0 (antibody, human IgG1, kappa, Heterodimerized IgG1; mutation in the GpH7-B3 H chain only; also called He Ab) heavy 1: not shown heavy 2: not shown light: DIVMTQSPLSLPVTPGEPASISCQASESLVHSNRNTYLHWYLQKPGQSPQLLIYKVSNRFSGVPDRFSGSGSGTDFTLKISRVEAEDVGVYYCSQNTHVPPTFGQGTKVEIERTVAAPSVFIFPPSDEQLKSGTASVVCLLNNFYPREAKVQWKVDNALQSGNSQESVTEQDSKDSTYSLSSTLTLSKADYEKHKVYACEVTHQGLSSPVTKSFNRGEC | 0.65 | 97.8 % of control | 150 % of control
8 | GpH7-A5/GpH7-B3 variant G237_20W/GpL16-k0 (antibody, human IgG1, kappa, Heterodimerized IgG1; mutation in the GpH7-B3 H chain only; also called He Ab) heavy 1: not shown heavy 2: not shown light: DIVMTQSPLSLPVTPGEPASISCQASESLVHSNRNTYLHWYLQKPGQSPQLLIYKVSNRFSGVPDRFSGSGSGTDFTLKISRVEAEDVGVYYCSQNTHVPPTFGQGTKVEIERTVAAPSVFIFPPSDEQLKSGTASVVCLLNNFYPREAKVQWKVDNALQSGNSQESVTEQDSKDSTYSLSSTLTLSKADYEKHKVYACEVTHQGLSSPVTKSFNRGEC | 0.41 | 78.4 % of control | 193 % of control
9 | GpH7-A5/GpH7-B3 variant L235_20W/GpL16-k0 (antibody, human IgG1, kappa, Heterodimerized IgG1; mutation in the GpH7-B3 H chain only; also called He Ab) heavy 1: not shown heavy 2: not shown light: DIVMTQSPLSLPVTPGEPASISCQASESLVHSNRNTYLHWYLQKPGQSPQLLIYKVSNRFSGVPDRFSGSGSGTDFTLKISRVEAEDVGVYYCSQNTHVPPTFGQGTKVEIERTVAAPSVFIFPPSDEQLKSGTASVVCLLNNFYPREAKVQWKVDNALQSGNSQESVTEQDSKDSTYSLSSTLTLSKADYEKHKVYACEVTHQGLSSPVTKSFNRGEC | 0.63 | 92.8 % of control | 147 % of control
